We go through two molecules from publication PMC12923946 (Cell Reports Medicine, 2026).

Broadly, the stoichiometry N is a count of units in the complex or per binding partner.

For one assay, the target named is RSV-F A2 (DS-Cav-1) (Human respiratory syncytial virus A, …, UniProt P03420, stabilised). Kind of assay: ELISA. A general note: An ELISA detects its analyte on a solid surface through an enzyme-linked reagent.
Another assay deals with hMPV-F A1(NL/1/00) (human metapneumovirus A1, strain NL/1/00, UniProt Q91F55, stabilised). Kind of assay: ELISA.
For assay [1], the target named is RSV prefusion F trimer (competition assays) (human respiratory syncytial virus A, …, UniProt P03420, stabilised). The experiment in a line: ELISA.
The target in another assay is T1, hMPV F-DS-CavEs2-IPDS (human metapneumovirus (strain not …, N-linked glycan at Asn172 (partially modelled))).
T1 chain: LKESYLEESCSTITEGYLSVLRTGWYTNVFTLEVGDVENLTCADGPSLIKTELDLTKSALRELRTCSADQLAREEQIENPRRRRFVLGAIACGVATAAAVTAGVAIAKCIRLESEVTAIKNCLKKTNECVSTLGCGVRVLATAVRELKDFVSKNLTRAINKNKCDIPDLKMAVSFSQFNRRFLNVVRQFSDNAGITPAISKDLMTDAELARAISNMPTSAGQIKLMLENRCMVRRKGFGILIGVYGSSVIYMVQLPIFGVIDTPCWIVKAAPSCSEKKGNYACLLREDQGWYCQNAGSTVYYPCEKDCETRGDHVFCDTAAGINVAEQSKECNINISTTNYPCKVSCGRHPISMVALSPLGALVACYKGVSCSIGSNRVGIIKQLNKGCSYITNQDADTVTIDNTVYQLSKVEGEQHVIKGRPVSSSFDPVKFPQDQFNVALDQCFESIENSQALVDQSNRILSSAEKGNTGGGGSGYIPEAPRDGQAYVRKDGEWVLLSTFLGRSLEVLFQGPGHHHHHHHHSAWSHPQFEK
The experiment in a line: cryo-EM structure.

B1: RM 5-1 (antibody, V domains shown)
VH: QGQLVQSGPEVKKPGATVKVSCRASAYPFGNYGITWVRQVPGQGLEWVGWISAYTGHTKFPQNFQGRVTLTADTSTSTGYMELRSLTSDDTAVYYCARGPCCSSPRPYDIWGQGTMVTVSS
VL: DIQMTQSPSTLSASVGDRVTITCRASQSIDDWLAWYQHSPGKAPKLLIYRASRLESGVPSRFSGSGSGTEFTLTISSLQPDDFASYYCQQCYTYSQTFGQGTRVEIK
Consider B1, for which the binding result (with RSV-F A2 (DS-Cav-1); with hMPV-F A1(NL/1/00); in assay [1]) was “binds” in each case.

B2: RM 5-1 Fab (Fab, V domains shown)
VH: QGQLVQSGPEVKKPGATVKVSCRASAYPFGNYGITWVRQVPGQGLEWVGWISAYTGHTKFPQNFQGRVTLTADTSTSTGYMELRSLTSDDTAVYYCARGPCCSSPRPYDIWGQGTMVTVSS
VL: DIQMTQSPSTLSASVGDRVTITCRASQSIDDWLAWYQHSPGKAPKLLIYRASRLESGVPSRFSGSGSGTEFTLTISSLQPDDFASYYCQQCYTYSQTFGQGTRVEIK
As for B2, the “stoichiometry N” value with hMPV F-DS-CavEs2-IPDS stood at 3 Fabs per trimer.
